Source: the supplement of paper PMC12042874
± gives the uncertainty stated by the source.

Assay: amyloid nucleation score (Sup35N fusion, yeast selection) (log enrichment); library NNK2; higher = more nucleation; inactive = no reads after selection
Outline: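 Nucleation score is defined as the DiMSum log enrichment of output over input reads, with centring on the mode score of non-aggregating sequences. A minimum of 100 input reads was required for each sequence. Reads came from Illumina sequencing of plasmid inserts from psi-negative yeast expressing Sup35N fused to peptides of 20 random codons, induced with 100 μM copper sulfate for 24 hours and grown 7 days at 30°C on medium lacking adenine and uracil.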
In the case of VLYYTPRLSVERMGFHNMIY, the amyloid nucleation score is reported as -0.46 ± 1. Substance VMGEKIWSAWYTRDDQLCGS has an amyloid nucleation score of 0.547 ± 0.36. Substance VMNDLILSKAVLGFELRLWG has an amyloid nucleation score of 4.23 ± 0.066. With VMNSVHVFQYTSCCLILVGL the amyloid nucleation score was 6.945 ± 0.062. VMTSIVFNRVSWYFLIMFVW showed an amyloid nucleation score of -0.987 ± 0.55. VMVAYSLLGSRSSILLW showed an amyloid nucleation score of 0.021 ± 0.32. In the case of VMYRRSACIEQDSYSNINCR, the amyloid nucleation score is reported as 0.025 ± 0.29. Substance VNAHLWYIFRVWDVKDRVVD has an amyloid nucleation score of -0.315 ± 0.74. For VNGSTMFQVMFWLRPVHVIE, the amyloid nucleation score was -0.119 ± 0.53. In the case of VNIRGTHVLVRVYSQGRNRA, the amyloid nucleation score is reported as 8.528 ± 0.062. With VNTNPMVAVPGMYIYYRWFL the amyloid nucleation score was “inactive”. VNVNMPWTEERSKSEMSNTW gave an amyloid nucleation score of 1.4 ± 0.37. Substance VNVSGSGSVPY has an amyloid nucleation score of 0.741 ± 0.27. Work on VNVYMYNYLLKHITKDRRST yielded an amyloid nucleation score of 8.16 ± 0.031. With VNWEHVRIVELFYKGMSQMA the amyloid nucleation score was -0.549 ± 1. VNWVGLSLKIRGYFTVSTWR gave an amyloid nucleation score of -0.141 ± 0.54. In the case of VPFCGNNCSHCVRMSRLGRS, the amyloid nucleation score is reported as 0.719 ± 0.47. VPLEYSRVI showed an amyloid nucleation score of 2.15 ± 0.15. For VPPSLLYLQTRDSPPEERMM, the amyloid nucleation score was 0.374 ± 0.64. For VPRFPA, the amyloid nucleation score was “inactive”. With VPRFVCTHVDLIFGGNGCTF the amyloid nucleation score was 4.91 ± 0.075. Substance VPVSRILNLFFVLVTL has an amyloid nucleation score of 6.45 ± 0.086. VQLDSSFLIM showed an amyloid nucleation score of 1.02 ± 0.48. In the case of VQYCFFCAHRDSFGFKHCF, the amyloid nucleation score is reported as “inactive”. VRCIE showed an amyloid nucleation score of -0.282 ± 0.28. VRCLVRYYAVR showed an amyloid nucleation score of -0.649 ± 0.79. VRCRDENHVVELSGGEVPDS showed an amyloid nucleation score of 0.066 ± 1. For VRDDCARWK, the amyloid nucleation score was 0.327 ± 0.45. VRIFSVCYKHLMGHCSSSA gave an amyloid nucleation score of -0.398 ± 0.31. VRIFWTVTLFDCRLLRWLSN showed an amyloid nucleation score of 0.045 ± 0.38. VRKRNVFFSSSFSSQRSGNC gave an amyloid nucleation score of -0.327 ± 0.63. Work on VRLFLAIMVYVLHSHHRYAD yielded an amyloid nucleation score of 0.978 ± 0.74. VRLFVFSKVKGLIMVNCSWK showed an amyloid nucleation score of -1.35 ± 0.44. Work on VRLNDWMVHLND yielded an amyloid nucleation score of 0.752 ± 0.35. In the case of VRLNMFFSGEFCQGMQLWVS, the amyloid nucleation score is reported as “inactive”. For VRLRASDKCLNV, the amyloid nucleation score was 1.59 ± 0.27. Substance VRLVNAVNRRTKIHDIYLRV has an amyloid nucleation score of 0.664 ± 0.26. With VRNSSV the amyloid nucleation score was “inactive”. VRPNSLRHILASLCFLGGEE showed an amyloid nucleation score of 7.416 ± 0.032. For VRSISASLSAMIYR, the amyloid nucleation score was -0.925 ± 0.45. Work on VRSVCRGTHFSK yielded an amyloid nucleation score of 0.711 ± 0.42. VRTWISDSCSVYWSSRLA gave an amyloid nucleation score of 5.06 ± 0.084. VRVEERSVTAYRFMTKPAWW showed an amyloid nucleation score of 4.88 ± 0.096. VRWAKNNRMTLYLKITLRAK showed an amyloid nucleation score of -0.951 ± 0.37. With VRYGDRSGGLYLKRYFMLSF the amyloid nucleation score was “inactive”. Work on VSARGSWFLTTSAAC yielded an amyloid nucleation score of -1.29 ± 1.1. VSCCCFFGLTLAVLGHSEVS gave an amyloid nucleation score of 3.55 ± 0.12. In the case of VSCYACREFMRLIVISGCLC, the amyloid nucleation score is reported as 3.69 ± 0.042. With VSELGSGSFIFCTFLADFHM the amyloid nucleation score was 6.3 ± 0.079. With VSFNGSVGMS the amyloid nucleation score was -0.907 ± 1.1. VSGFFSDHA showed an amyloid nucleation score of -1.06 ± 1.1. In the case of VSGRDHTNNTGLYAWLHFCY, the amyloid nucleation score is reported as -0.493 ± 0.63. For VSHSSIWSGSLKKSVSCDHV, the amyloid nucleation score was “inactive”. In the case of VSISCSVWIMGRVYLIRYSG, the amyloid nucleation score is reported as -1.36 ± 0.78. Substance VSKMGYRDALVAREGLCGVV has an amyloid nucleation score of 0.072 ± 0.38. Work on VSLLWYHFGWLLDCFWYRWS yielded an amyloid nucleation score of 0.429 ± 0.8. VSMGNGARH gave an amyloid nucleation score of 0.194 ± 0.2. VSNLTQVAEVRQSNGGVFCG showed an amyloid nucleation score of 0.189 ± 0.39. VSRFYCKYYSAQWIRYGRAC showed an amyloid nucleation score of -0.544 ± 0.36. With VSRGGKHGVQIT the amyloid nucleation score was “inactive”. For VSSAHYV, the amyloid nucleation score was -0.657 ± 0.76. VSSLFIEDFFFNRTSVMYIG showed an amyloid nucleation score of 0.103 ± 0.25. In the case of VSSPCGRFSFNNNGGKVWTW, the amyloid nucleation score is reported as -0.111 ± 0.61. Work on VSSVRIILLAWWSMRTLYFD yielded an amyloid nucleation score of -2.43 ± 0.78. In the case of VSTRSLF, the amyloid nucleation score is reported as “inactive”. VSVKRGAPKVGSTGPVYTCG showed an amyloid nucleation score of -0.306 ± 0.5. With VSWAVGQGWTVRSSPRVCGE the amyloid nucleation score was 0.267 ± 0.42. With VSWDISMNEVADWVVGAGGA the amyloid nucleation score was 1.13 ± 0.42. In the case of VSYEVVINRYFGKHCCGTII, the amyloid nucleation score is reported as “inactive”. In the case of VTALDLMNGIWSRNMPGEVV, the amyloid nucleation score is reported as -0.18 ± 0.19. VTALDMFVLSWGCGWGMN showed an amyloid nucleation score of 3.06 ± 0.17. VTCGV gave an amyloid nucleation score of 0.179 ± 0.56. Substance VTFYLGSSE has an amyloid nucleation score of 0.155 ± 1.1. For VTGTYFLVLITCA, the amyloid nucleation score was 4.27 ± 0.065. VTIRDLFYGHVRQPDSQVVI gave an amyloid nucleation score of 0.883 ± 0.52. With VTKDCNMRMKCTSSIIFLKN the amyloid nucleation score was -0.459 ± 1.1. Work on VTNSSMQMSSWADPSVKSGM yielded an amyloid nucleation score of 0.032 ± 0.32. VTTVRSPILLTLRTVPF showed an amyloid nucleation score of 0.425 ± 0.38. Substance VVELKELAYQGNGIVLIMED has an amyloid nucleation score of -0.066 ± 0.41. Work on VVFCGVFLCDCDNGESSSRY yielded an amyloid nucleation score of 8.989 ± 0.071. With VVFRLRSNRGNVVPRSWAWC the amyloid nucleation score was 1.71 ± 0.13. For VVGFF, the amyloid nucleation score was “inactive”. With VVGSFFCQNMKHLYRELRQS the amyloid nucleation score was “inactive”. VVHGIETIIVDPDRALVGDG showed an amyloid nucleation score of -0.356 ± 0.32. Work on VVIQPGTYFYLCNIFA yielded an amyloid nucleation score of -1.58 ± 0.78. Work on VVLFWLNCRRVYFLGSKYRA yielded an amyloid nucleation score of 0.331 ± 0.8.
